Tests used:
[1] = biological target: T1, human CD163 expressed on human myeloid cells (M2c macrophages, M2 macrophages, in vitro MDSCs) (human, UniProt Q86VB7 42-1114); assay: flow cytometry, AF647-conjugated AB102 on polarized M2c macrophages without siRNA
T1 construct: Endogenous CD163 on primary human monocyte-derived cells; also called huCD163; CD163^Hi cells
Method: The macrophage detachment solution was replaced with cold PBS−/− (PBS without calcium and magnesium; Hyclone No. SH30028.02) containing 0.2 mM EDTA and 0.1% HSA. The cells were spun down at 650×g for 5 min and then resuspended in 0.5 mL cold Block solution (FACS buffer+10% NGS+10 μg of human IgG Fc fragment protein (Abcam No. ab90285)) per million cells. The cells were counted and an average of 1×10⁶ per mL was used for further calculations. The cells were incubated at RT for 15 min (to increase FcR binding), followed by a 30 min incubation on ice for full blocking. An aliquot of unstained cells was set aside for compensation controls. e780 viability dye (ThermoFisher eBioscience No. 65-0865-18) was added to the remainder at a final dilution of 1:1000. Cells were aliquoted into 96-well plates (40 μL per well), and 10 μL of antibody solution was added to each well. Antibodies were prepared with a starting concentration of 100 μg/mL in FACS buffer and serially diluted in FACS buffer. After addition of antibodies, each set of cells was tested with an antibody panel (AB101 in FcNull framework conjugated to AF647 and commercial anti-CD163 conjugated to BV421 [BioLegend No. 333612]) and an isotype panel (ISO2 in FcNull framework conjugated to AF647 and commercial mIgG1 conjugated to BV421). […] Cells were then analyzed by flow cytometry on a BD Canto II machine.

[2] = biological target: T2, His-tagged recombinant human CD163 (R&D Systems, No. 1607-CD-050) (human, UniProt Q86VB7 46-1050); assay: ELISA, plate coated with 5 ug/mL His-tagged recombinant human CD163, HRP anti-human IgG F(ab')2, A450
T2 construct: Bought protein; also called huCD163; not shown: His tag
Method: AB101 binding to His-tagged recombinant human CD163 (R&D Systems, No. 1607-CD-050) and recombinant murine CD163 (R&D Systems, No. 7435-CD-050) proteins was determined using ELISA. Recombinant proteins were diluted in PBS to 5 μg/mL and added to 384-well High binding ELISA plates (Greiner Bio-One, No. 781061) at 25 μL per well and incubated at 4° C. overnight. The plates were washed three times with PBS, using the BioTek ELx405 Select microplate washer (wash program ELISA_384_PBS_3×_wash) and then blocked with 90 μL/well of blocking buffer (2% nonfat, dry milk/PBS+0.05% Tween 20) for 1 hr at RT.
After blocking, 25 μL per well of primary antibodies were added to the plates and incubated for 1 hr at room temp. The test antibody was AB101; the control anti-huCD163 antibody was a commercially available antibody in murine IgG1 framework (R&D Systems, #MAB1607); the isotype controls were a proprietary mAb, in human IgG1, human FcNull, and murine IgG1 frameworks, with known specificity. After primary antibody binding, plates were washed three times with PBS using the EL405× (wash program ELISA_384_PBS_3×_wash). […] After development, the reaction was stopped by adding 25 μL per well of 0.3 M HCl and plates were read using the SpectraMax M5e instrument at 450 nm.

T2 sequence (Q86VB7 46-1050 limits assumed): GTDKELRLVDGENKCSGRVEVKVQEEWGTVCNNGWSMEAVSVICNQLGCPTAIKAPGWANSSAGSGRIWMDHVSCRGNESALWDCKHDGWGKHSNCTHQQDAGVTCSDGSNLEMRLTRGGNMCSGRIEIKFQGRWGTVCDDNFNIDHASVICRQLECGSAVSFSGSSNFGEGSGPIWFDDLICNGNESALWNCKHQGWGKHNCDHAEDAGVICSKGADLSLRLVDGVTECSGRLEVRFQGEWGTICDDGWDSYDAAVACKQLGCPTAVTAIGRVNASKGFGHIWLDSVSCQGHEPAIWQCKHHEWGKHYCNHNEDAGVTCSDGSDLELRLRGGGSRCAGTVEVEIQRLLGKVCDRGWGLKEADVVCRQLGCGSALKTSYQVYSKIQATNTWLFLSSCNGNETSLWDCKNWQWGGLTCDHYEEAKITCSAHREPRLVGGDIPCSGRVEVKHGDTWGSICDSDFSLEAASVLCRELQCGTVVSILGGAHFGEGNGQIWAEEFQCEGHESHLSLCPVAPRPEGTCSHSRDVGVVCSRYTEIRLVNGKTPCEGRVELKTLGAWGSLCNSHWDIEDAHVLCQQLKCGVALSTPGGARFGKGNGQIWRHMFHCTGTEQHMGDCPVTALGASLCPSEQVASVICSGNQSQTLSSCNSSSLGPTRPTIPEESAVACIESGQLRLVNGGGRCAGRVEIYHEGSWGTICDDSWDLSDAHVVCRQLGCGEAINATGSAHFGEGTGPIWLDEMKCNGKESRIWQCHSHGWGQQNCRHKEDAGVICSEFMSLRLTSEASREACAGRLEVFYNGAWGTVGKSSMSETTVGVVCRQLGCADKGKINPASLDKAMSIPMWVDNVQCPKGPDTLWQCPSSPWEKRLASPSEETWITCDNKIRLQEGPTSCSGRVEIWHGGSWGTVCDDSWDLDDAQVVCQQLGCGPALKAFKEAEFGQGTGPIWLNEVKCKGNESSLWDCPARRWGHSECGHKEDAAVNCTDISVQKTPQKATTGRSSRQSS
T1 sequence (Q86VB7 other isoform, or with tags, fused parts or gaps limits assumed): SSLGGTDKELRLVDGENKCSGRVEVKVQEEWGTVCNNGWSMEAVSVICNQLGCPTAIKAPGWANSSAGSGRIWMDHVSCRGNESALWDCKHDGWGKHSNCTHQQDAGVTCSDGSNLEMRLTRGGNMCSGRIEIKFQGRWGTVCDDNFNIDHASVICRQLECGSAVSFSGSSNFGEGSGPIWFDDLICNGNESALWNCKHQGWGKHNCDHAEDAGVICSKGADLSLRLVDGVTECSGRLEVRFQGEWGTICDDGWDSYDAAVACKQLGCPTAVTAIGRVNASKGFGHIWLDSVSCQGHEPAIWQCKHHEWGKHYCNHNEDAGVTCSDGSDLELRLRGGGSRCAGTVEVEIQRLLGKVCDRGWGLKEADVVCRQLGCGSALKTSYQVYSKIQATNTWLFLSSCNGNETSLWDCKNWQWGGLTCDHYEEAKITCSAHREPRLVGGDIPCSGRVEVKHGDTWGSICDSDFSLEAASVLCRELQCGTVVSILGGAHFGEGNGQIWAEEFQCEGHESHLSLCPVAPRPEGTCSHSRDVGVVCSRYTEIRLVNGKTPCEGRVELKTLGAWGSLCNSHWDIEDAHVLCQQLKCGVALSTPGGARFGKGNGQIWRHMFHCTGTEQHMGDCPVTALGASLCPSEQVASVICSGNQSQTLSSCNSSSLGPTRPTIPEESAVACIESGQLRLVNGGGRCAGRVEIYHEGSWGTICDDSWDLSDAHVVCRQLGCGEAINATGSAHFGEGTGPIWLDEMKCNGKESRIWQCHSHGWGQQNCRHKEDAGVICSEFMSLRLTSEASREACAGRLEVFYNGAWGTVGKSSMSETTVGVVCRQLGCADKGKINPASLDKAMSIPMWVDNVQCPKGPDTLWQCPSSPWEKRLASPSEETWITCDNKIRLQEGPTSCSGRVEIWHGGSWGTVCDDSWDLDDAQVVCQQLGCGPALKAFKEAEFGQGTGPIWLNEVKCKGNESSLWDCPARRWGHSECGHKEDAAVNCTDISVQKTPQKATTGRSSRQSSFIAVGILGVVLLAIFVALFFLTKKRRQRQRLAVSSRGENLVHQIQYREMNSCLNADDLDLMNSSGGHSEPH

EC50 (read off the curve) [1]: ~10 nM | EC50 (read off the curve) [2]: ~1 nM
B1: AB102 (antibody, human IgG1, kappa)
light: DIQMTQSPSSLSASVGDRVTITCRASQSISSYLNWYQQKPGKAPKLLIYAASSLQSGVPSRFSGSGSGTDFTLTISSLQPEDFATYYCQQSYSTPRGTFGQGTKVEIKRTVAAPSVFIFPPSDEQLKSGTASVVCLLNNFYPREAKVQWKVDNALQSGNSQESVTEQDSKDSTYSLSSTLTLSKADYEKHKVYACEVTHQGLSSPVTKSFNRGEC
heavy: EVQLVESGGGVVQPGRSLRLSCAASGFTFSSYAMHWVRQAPGKGLEWVAVISYDGSNKYYADSVKGRFTISRDNSKNTLYLQMNSLRAEDTAVYYCARENVRPYYDFWSGYYSEYYYYGMDVWGQGTTVTVSSASTKGPSVFPLAPSSKSTSGGTAALGCLVKDYFPEPVTVSWNSGALTSGVHTFPAVLQSSGLYSLSSVVTVPSSSLGTQTYICNVNHKPSNTKVDKRVEPKSCDKTHTCPPCPAPEFEGGPSVFLFPPKPKDTLMISRTPEVTCVVVDVSHEDPEVKFNWYVDGVEVHNAKTKPREEQYNSTYRVVSVLTVLHQDWLNGKEYKCKVSNKALPASIEKTISKAKGQPREPQVYTLPPSREEMTKNQVSLTCLVKGFYPSDIAVEWESNGQPENNYKTTPPVLDSDGSFFLYSKLTVDKSRWQQGNVFSCSVMHEALHNHYTQKSLSLSPGK
notes: Biotinylated for the PFA immunoprecipitation and AF647 conjugated for flow cytometry; also called AB101 FcNull antibody; AB101 in FcNull framework; copies: 2 + 2

Source: US20210253733A1 (ONCORESPONSE, published 2021)
